Positions count from the first letter of the chain named. Numbers in names are those of the source. Ends that are not written are not given here. * marks the point of attachment. Biotin = O=C1N[C@H]2[C@H](CS[C@H]2CCCCC(=O)*)N1; ethylene glycol linker = not defined here
Assays:
[1] = biological target: T1, GFP with a C-terminal BC2 tag (GFPBC2T) (human, UniProt P42212 1-238 = GFP); assay: binding studies with GFPBC2T
T1 construct: Expressed in E. coli; also called C-terminally BC2-tagged GFP

[2] = biological target: T2, mCherry-Vimentin (untagged) (UniProt P08670 1-466); assay: Western blot probed with BC2-NbAF488
T2 construct: Control without the BC2 tag; not shown: mCherry fluorescent protein
T2 sequence (P08670 whole entry): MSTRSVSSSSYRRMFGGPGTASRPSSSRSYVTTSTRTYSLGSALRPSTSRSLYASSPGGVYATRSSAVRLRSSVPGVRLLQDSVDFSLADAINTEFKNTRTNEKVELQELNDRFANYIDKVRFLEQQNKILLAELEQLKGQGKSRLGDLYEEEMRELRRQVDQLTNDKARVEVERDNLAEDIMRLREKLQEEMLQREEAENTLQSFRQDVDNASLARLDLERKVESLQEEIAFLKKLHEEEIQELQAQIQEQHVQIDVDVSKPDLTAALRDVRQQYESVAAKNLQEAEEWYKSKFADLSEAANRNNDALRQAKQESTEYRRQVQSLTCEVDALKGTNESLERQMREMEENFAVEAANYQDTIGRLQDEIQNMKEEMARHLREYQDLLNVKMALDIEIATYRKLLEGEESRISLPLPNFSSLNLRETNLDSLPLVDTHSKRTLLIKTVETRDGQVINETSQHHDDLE

[3] = biological target: T3, eGFP-PCNA with C-terminal BC2 tag (eGFP-PCNABC2T) (human, UniProt P12004 1-261); assay: Western blot probed with BC2-NbAF488
T3 construct: Expressed in HEK293T or HeLa cells; not shown: eGFP
T3 sequence (P12004 other isoform, or with tags, fused parts or gaps limits assumed): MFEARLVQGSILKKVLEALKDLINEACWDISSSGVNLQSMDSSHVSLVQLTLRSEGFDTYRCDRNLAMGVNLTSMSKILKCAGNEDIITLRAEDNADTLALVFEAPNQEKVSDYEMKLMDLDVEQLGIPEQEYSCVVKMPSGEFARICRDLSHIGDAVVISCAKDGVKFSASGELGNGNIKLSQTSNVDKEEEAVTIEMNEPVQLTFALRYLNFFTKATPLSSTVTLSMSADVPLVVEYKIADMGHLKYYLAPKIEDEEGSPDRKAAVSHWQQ

[4] = biological target: T4, mCherry-Vimentin with C-terminal BC2 tag (mCherry-VIMBC2T) (human, UniProt P08670 1-466); assay: Western blot probed with BC2-NbAF488
T4 construct: Expressed in HEK293T or HeLa cells; also called mCherry-VimentinBC2T; not shown: mCherry fluorescent protein
T4 sequence (P08670 other isoform, or with tags, fused parts or gaps): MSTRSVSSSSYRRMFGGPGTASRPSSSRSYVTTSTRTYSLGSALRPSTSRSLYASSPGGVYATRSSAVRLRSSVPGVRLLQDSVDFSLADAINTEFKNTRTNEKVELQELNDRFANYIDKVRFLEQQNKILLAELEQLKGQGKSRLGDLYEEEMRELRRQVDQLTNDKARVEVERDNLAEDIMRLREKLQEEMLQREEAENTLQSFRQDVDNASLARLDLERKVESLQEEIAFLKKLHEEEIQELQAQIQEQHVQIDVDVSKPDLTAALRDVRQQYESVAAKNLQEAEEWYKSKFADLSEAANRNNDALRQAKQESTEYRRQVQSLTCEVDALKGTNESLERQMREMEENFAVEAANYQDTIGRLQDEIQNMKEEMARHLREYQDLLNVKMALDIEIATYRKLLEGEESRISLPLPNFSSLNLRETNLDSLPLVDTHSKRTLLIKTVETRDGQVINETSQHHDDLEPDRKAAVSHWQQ

BC2T S8E library peptide = biological target: T5, BC2T S8E library peptide (human); assay: peptide library pulldown on immobilized Nb, LC-MS of supernatant; ratio vs GFP-Nb control (1 = not captured, 0 = captured)
T5 construct: also called BC2TS8X: E
T5 peptide: Ac-PDRKAAVEHWQQ-NH2
From the text: (§1) In total, 12 different BC2T libraries displaying all 20 proteinogenic amino acids in one single position of the peptide were used in immunoprecipitation experiments. […] The direct comparison with the GFP-Nb made it possible to determine the quantitative degree of peptide capture without the need of labeled standards. […] The more peptide was captured the more the value approximates 0. It was not possible to discriminate between isoleucine (I) and leucine (L) peptide versions since these peptides are isobaric.
(§2) To investigate the binding specificity of the BC2T and derived mutants peptide libraries for each amino acid position of the sequence […] (SEQ ID NO:4) were synthesized with acetyl and amide groups located at the N-termini or C-termini respectively (Intavis). […] Incubations were performed in 300 μl PBS/0.01% CHAPS for 1 h on a HulaMixer (Life Technologies). Subsequent to a centrifugation step 10 μl supernatant were analyzed in a LC-MS procedure. Peptides were separated using an UltiMate3000 RSLCnano System (Thermo Scientific), composed of a C18 PepMap100μ-Precolumn (300 μm×5 mm; particle size: 5 μm; pore size: 100 Å—Thermo Scientific) and a C18 analytical column (Acclaim Rapid Separation LC (RSLC) Column: 150 mm×5 mm; particle size: 2.2 μm; pore size: 100 Å—Thermo Scientific). A step gradient was applied starting at 8% and ending after 20 min at 30% eluent B (80% acetonitrile, 20% H₂O, 0.1% formic acid).

[5] = biological target: T6, BC2T Q11E library peptide (human); assay: as above
T6 peptide: Ac-PDRKAAVSHWEQ-NH2
From the text: as §1, §2

BC2T H9D library peptide = biological target: T7, BC2T H9D library peptide (human); assay: as above
T7 peptide: Ac-PDRKAAVSDWQQ-NH2
From the text: as §1, §2

[6] = biological target: T8, BC2T Q11D library peptide (human); assay: as above
T8 peptide: Ac-PDRKAAVSHWDQ-NH2
From the text: as §1, §2

[7] = biological target: T9, BC2T Q12D library peptide (human); assay: as above
T9 peptide: Ac-PDRKAAVSHWQD-NH2
From the text: as §1, §2

[8] = biological target: T10, BC2T Q12E library peptide (human); assay: as above
T10 peptide: Ac-PDRKAAVSHWQE-NH2
From the text: as §1, §2

[9] = biological target: T11, BC2T W10D library peptide (human); assay: as above
T11 construct: also called BC2TW10X: D
T11 peptide: Ac-PDRKAAVSHDQQ-NH2
From the text: as §1, §2

BC2T H9E library peptide = biological target: T12, BC2T H9E library peptide (human); assay: as above
T12 peptide: Ac-PDRKAAVSEWQQ-NH2
From the text: as §1, §2

[10] = biological target: T13, BC2T W10E library peptide (human); assay: as above
T13 construct: also called BC2TW10X: E
T13 peptide: Ac-PDRKAAVSHEQQ-NH2
From the text: as §1, §2

BC2T S8D library peptide = biological target: T14, BC2T S8D library peptide (human); assay: as above
T14 construct: also called BC2TS8X: D
T14 peptide: Ac-PDRKAAVDHWQQ-NH2
From the text: as §1, §2

[11] = biological target: T3, eGFP-PCNA with C-terminal BC2 tag …; assay: immunocytochemistry on fixed HeLa cells expressing GFP-PCNABC2T
Experimental: After 24 h, cells were washed once with PBS and fixed with 4% w/v paraformaldehyde (PFA) in PBS for 15 min at RT or with methanol for 15 min at −20° C. After removal of the fixative and washing twice with PBS, cells were blocked and permeabilized with 3% w/v BSA and 0.1% v/v Triton X-100 in PBS for 1 h at RT. […] Unbound nanobody and DAPI were removed by washing 3 times with a mixture of PBS and 6% v/v 5 M NaCl in H₂O. Images of FIG. 4 b and FIG. 10 b were acquired with an Image Xpress micro XL system. Confocal images of FIG. 10 a were acquired with an ImageXpress Micro Confocal.

[12] = biological target: T15, pTag2 peptide (biotinylated) (reading uncertain); assay: BLI, biotinylated peptide on streptavidin biosensor, BC2-Nb in solution, 1:1 model
T15 construct: Immobilised on streptavidin biosensors
T15 peptide: {Biotin-ethylene glycol linker}-ADRVRAVSHWSS
Experimental: (§3) Biolayer interferometry (BLI)-based affinity measurements were used to assess two improved variations of the original BC2T sequence (a: […], pTag1 SEQ ID NO:33; b: […], pTag2 SEQ ID NO:34) in comparison with the original BC2T sequence (c: BC2T SEQ ID NO:4).
(§4) The shaking rate was 1200 rpm. As a reference, each peptide was also incubated with BLItz buffer only according to the protocol above. […] The sensor was regenerated by sequential dips into 10 mM glycine pH 2.0 and BLItz buffer (repeated three times). Raw data were analysed using the software BLItz Pro (fortéBio) and a 1:1 binding model.

[13] = biological target: T16, pTag1 peptide (biotinylated) (reading uncertain); assay: as above
T16 construct: Immobilised on streptavidin biosensors
T16 peptide: {Biotin-ethylene glycol linker}-PDRVRAVSHWSS
Experimental: as §3, §4

[14] = biological target: T17, BC2T peptide (biotinylated) (human, reading uncertain); assay: as above
T17 construct: Immobilised on streptavidin biosensors; also called original BC2T; wildtype BC2T
T17 peptide: {Biotin-ethylene glycol linker}-PDRKAAVSHWQQ
Experimental: as §3, §4

B1: BC2-NbC50A_C102S (VHH)
VHH: QVQLVESGGGLVQPGGSLTLSCTASGFTLDHYDIGWFRQAPGKEREGVSAINNSDDDTYYADSVKGRFTIFMDNAKDTVYLQMNSLKPEDTAIYYCAEARGSKRGRYEYDFWGQGTQVTVSS
notes: Mutant without the additional disulfide bond between CDR3 and FR2
B1: no binding [1].

B2: BC2-NbAF488 (VHH)
VHH: B1 VHH with A50C, S102C
modifications: AlexaFluor488 coupled chemically with the NHS-activated dye (sites not given)
notes: also called BC2-Nb488; fluorescently labeled BC2-Nb (AlexaFluor488); not shown: C-terminal 6xHis-tag added by the pHEN6 vector
B2: no binding [2]; binds [3]; binds [4].

B3: BC2-Nb(R106S) (VHH)
VHH: B1 VHH with A50C, S102C, R106S
notes: Headlock mutant; immobilized on beads in the library pulldown
With B3 the ratio (BC2T S8E library peptide) was 1, the ratio [5] was 0.5 and the ratio (BC2T H9D library peptide) was 0.5. For the same binder, the ratio [6] was 0.6, the ratio [7] was 0.9 and the ratio [8] was 0.7. The ratio [9] was 1, the ratio (BC2T H9E library peptide) was 0.6 and the ratio [10] was 1.1. The ratio (BC2T S8D library peptide) was 0.9.

B4: BC2-NbATTO647 (VHH)
VHH: B1 VHH with A50C, S102C
modifications: Atto647 coupled chemically with the NHS-activated dye (sites not given)
notes: also called fluorescently labeled BC2-Nb (ATTO647); not shown: C-terminal 6xHis-tag added by the pHEN6 vector
B4: binds [11].

B5: BC2 nanobody (BC2-Nb) (VHH)
VHH: B1 VHH with A50C, S102C
notes: Alpaca VHH, 122 aa; in solution at 5-50 nM in the BLI assay
B5 showed a Kd [12] of 1.9 nM, a koff [12] of 0.0002 s⁻¹ and a kon [12] of 110000 M⁻¹ s⁻¹. It also gave a Kd [13] of 0.7 nM, a koff [13] of 6.8e-05 s⁻¹ and a kon [13] of 92000 M⁻¹ s⁻¹. For the same binder, the Kd [14] was 2.6 nM, the koff [14] was 0.0005 s⁻¹ and the kon [14] was 190000 M⁻¹ s⁻¹.
